Results from the supplement of paper PMC12636428.

System: Saccharomyces cerevisiae
Experiment: transcriptional activation domain activity (GFP:mCherry ratio, weighted mean of sorted bins, harmonized to initial dataset scale) (arbitrary fluorescence ratio units); higher = stronger transcriptional activation
Settings: beta-estradiol 1 µM; induction time 4 h
Method in brief: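 Yeast diploids with a GFP reporter received barcoded protein tiles, fused to an estradiol-inducible synthetic transcription factor, at the URA3 locus. Cultures were diluted 1:5 into SC holding 1 uM beta-estradiol, incubated 4 hours at 30 °C, sorted into 8 bins on GFP:mCherry ratio, and sequenced for barcodes, with tiles under 50 reads discarded. Activation activity values come from the read-weighted mean of bin median fluorescence, averaged across barcodes and linearly placed on the initial dataset scale.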

| Sequence | transcriptional activation domain activity |
| --- | --- |
| MLNLSYPFVLFILVPLILIPTCFCPFFVGPSYMSFCLSWLLPLFSFLPLLMLM | 50300 |
| RHLAEAGLGIAAAGAAKELYDHRRRSRSRSSDSSRSRSRSQSHTGRHVAAAAL | 45800 |
| EEEGNSRRKRRHRDDRDSRERDERGRDRDRERRRHRRDSSRSRDASEEERGHK | 13400 |
| ANRRMSLVCFLFIVVRYVSIAALVLNGVGFYGTMFDMDSCTHFRLAPPVTKMV | 44900 |
| SMDQIREYNTRLQLVNAQSFDYTDNPYSFNVGINQDSAVFDLMTSPFTQEEVL | 112000 |
| DEPFKCTQSRCSIILPRDLMAVHFSYRRRTLKLIRSCPITKCSFRIRLFRPQS | 69700 |
| GNATAGAGAGQAGEAKGKGKAKAKAKGKEKKGKGKAKGKANGKNNQGAAAGGA | 46300 |
| LSTLFYIFCRYALVANFLYSLSIIKGSHIINCDIGYMICGVLSIFGHIGIIAV | 49800 |
| ELQKLLKFKVDDKKYPRFSPMFYPNNVKKDKLLFRVRLLVNILRVVLLGPSSL | 36100 |
| ITVFNYTVYDIISPTGTNYLAFMCWIGLWSLVFHWILAITNCCNWLRYVTRFP | 32700 |
| GCWGETWWYTMQFGALLAEGAAQHWLGLLEQKVLPWSRYGMMQKGLRRLFGYV | 75600 |
| MDIYGSCICPGGLALGEFFYFLFFLVLSSYYYYFLFSFLFLFSLFLSFVVWRF | 49700 |
| SLLQHLAEYFICFDSVVSFLLTLVVNVFRLTSFGIIRLVGWRPVVFFFFPSIY | 50900 |
| LSYCHRPVFTCCDLYRTCLYCSIFYLLSFPILLPPSISLHIILLFSHTILIIL | 31700 |
| VMFHGKQMKNFLIDINSFTNQQQQAQDNPSFLPLDIEQSSYDLSEDAMSYPII | 115000 |
| ADSGDEYVQDRRDGPAKGGKAPRREKDGRDEEGGRKKAAKKRKRKVQAQPEID | 30100 |
| WPWTFWPWTFWIFWTFWTFGLFGLFGLFGLGLFGLFGLFGPLDFLDFLDLWTF | 42000 |

| Sequence | transcriptional activation domain activity |
| --- | --- |
| PEPVAAPAPANDGFSEVQHNRGGRGRGGQYQGEGRGGYRGRGRGGPRGGGEFR | 24500 |
| RIRKFTVLGATIVEPFMECVLNGVLGAFGFWVFFGVPRLWFFGWHLCYWLLVD | 86000 |
| LGLLLVVSVRIVVTLFSLFFFILLLVALGLIILIIALIVKAIIIVVYFFFFFV | 20400 |
| LLNIGNGGVPKNTNVHLGAQFFYLSFLEFILSCLTLCSRSWAWFHVVCVVHLR | 62300 |
| ATVNLVINFTEMTNLMRALLILYRLKERVLSMAKRLELAELRKSKSINVNLTL | 60400 |
| MFSFSFPLFLSPLPISLFFLPFALSYSLLSSHLMADICLSSTRWLSSIFFSFF | 36100 |
| AAEGGDSVAKSSPAKPKQSKQSKKRPRDEDGEGAGEAPASKKQPKAKAKAAKA | 26100 |
| ENASEPQKQEAEEKPKSTTAASTSVPRSSKPSVEAKPVRKSRRTGAQRRAPSQ | 38800 |
| YYGRTIVRTNFWLKTYINFEIDALLLNGRATVRRFINHLYQDQRAKLFKECKH | 54700 |
| RLWCFSRGFMLVNYNVLVLSCQLAWSSEFLMSFWTFVFVLILMLLYYFVWAHK | 43700 |
| TDVYYALRPGYQDDEVWDLLPLPTFPQLHMLTLNMLHISFQFPNWWTLWFKWI | 68900 |
| RDRKKRKVDGSEDSDDSDDDGTRGKGRGKSKSKGKGKSKEKKKKSSRKSKKAE | < 6570 |
| TLPFQIFMICDLTVPLKLNGFLVNGSLNLLGIMMVRVTFSCLGLAQLFQLIIC | 62100 |
| ALNITYLFLGTYGWEYFGSCSVECALVCGRLAFRLSLIPYVLGRTSLLIYFIL | 41000 |
| MCRFFIFLLSFLYDISVPILVFWSVHSPLLGWLFPGGGYTWRCLFFLCFLVYM | 51400 |
| RLSASKIYIWCSGGVVFAIVLALQVLVLLALLNVITCLEGHMLSIHGWPRGEC | 31100 |
| CFILLHLVLSFFALSCLYCLVLLLLPLPLILLFLLSSPWKFVPVHLQRHFVVV | 68600 |
